Numbering of substitutions follows the chain as printed. Names may count otherwise.
T1: titin Z8-Z9 (human, UniProt Q8WZ42-12 1698-1931)
T1 construct: titin, human, domains Z8-Z9, residues 1698 to 1931 based on NM_001267550/NP_001254479 (transcript variant IC); numbers count on: transcript variant IC; The vector encodes His6 followed by a TEV cleavage site; no cleavage is described; source: E. coli BL21-CodonPlus (DE3)-RIPL, purified (Ni-NTA)
T1 sequence (looked up): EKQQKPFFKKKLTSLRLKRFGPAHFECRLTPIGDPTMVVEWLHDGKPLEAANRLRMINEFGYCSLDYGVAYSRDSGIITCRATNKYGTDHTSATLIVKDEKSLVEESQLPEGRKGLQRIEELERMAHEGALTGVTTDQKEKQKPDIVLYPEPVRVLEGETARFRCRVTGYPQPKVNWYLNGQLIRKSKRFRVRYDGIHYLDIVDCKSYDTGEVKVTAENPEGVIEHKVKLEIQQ

B1: obscurin Ig58-Ig59 (wild type) (domain or fragment, human, UniProt Q5VST9 4337-4521, looked up)
chain: TAKNTVVRGLENVEALEGGEALFECQLSQPEVAAHTWLLDDEPVHTSENAEVVFFENGLRHLLLLKNLRPQDSCRVTFLAGDMVTSAFLTVRGWRLEILEPLKNAAVRAGAQACFTCTLSEAVPVGEASWYINGAAVQPDDSDWTVTADGSHHALLLRSAQPHHAGEVTFACRDAVASARLTVLG
modifications: labelled with the Monolith NT Protein Labeling kit RED-NHS (in the MST experiments only)
notes: obscurin, human, domains Ig58-Ig59, residues 4337-4521 based on NM_001098623/NP_001092093 (transcript variant B); The vector encodes His6 followed by a TEV cleavage site; no cleavage is described; The His6 tag holds the protein on Ni-NTA beads in the pull-downs; also called Ig58-Ig59WT; O5859; source: E. coli BL21-CodonPlus (DE3)-RIPL, purified (Ni-NTA); not shown: His6, N-terminal, kept
B2: obscurin Ig58-Ig59 R4444W (domain or fragment, human, UniProt Q5VST9 4337-4521, looked up)
chain: B1 chain with R108W
modifications: labelled with the Monolith NT Protein Labeling kit RED-NHS
notes: The variant occurs in the human population; also called R4444W variant; Arg4444Trp; source: E. coli BL21-CodonPlus (DE3)-RIPL, purified (Ni-NTA)
B3: obscurin Ig58-Ig59 R4344Q (domain or fragment, human, UniProt Q5VST9 4337-4521, looked up)
chain: B1 chain with R8Q
modifications: labelled with the Monolith NT Protein Labeling kit RED-NHS (in the MST experiments only)
notes: The variant occurs in the human population (found in up to 15% of African Americans); also called R4344Q variant; Arg4344Gln; source: E. coli BL21-CodonPlus (DE3)-RIPL, purified (Ni-NTA); not shown: His6, N-terminal, kept
B4: obscurin Ig58-Ig59 R4344Q, A4484T double variant (domain or fragment, human, UniProt Q5VST9 4337-4521, looked up)
chain: B1 chain with R8Q, A148T
modifications: labelled with the Monolith NT Protein Labeling kit RED-NHS
notes: source: E. coli BL21-CodonPlus (DE3)-RIPL, purified (Ni-NTA)
B5: phospholamban transmembrane region PLN(23-52) (peptide, UniProt P26678 23-52, looked up)
chain: QARQKLQNLFINFCLILICLLLICIIVMLL
notes: phospholamban, human, transmembrane region, residues 23-52 (synthetic); source: synthetic peptide, bought: Pepscan
B6: human full-length phospholamban (peptide, UniProt P26678 1-52, looked up)
chain: MEKVQYLTRSAIRRASTIEMPQQARQKLQNLFINFCLILICLLLICIIVMLL
notes: phospholamban, human, full length (synthetic); Kept in buffer with Triton X-100; seen on gels as monomeric and pentameric bands, both of which were pulled down by Ig58-Ig59; also called PLN; source: synthetic peptide, bought: Pepscan

Legend:
[1] = molecular target: T1, titin Z8-Z9; test: MST; obscurin Ig58-Ig59 labelled with RED-NHS (typically 50-100 nM); unlabelled titin Z8-Z9 or ObB diluted serially; PBS, 2 mM DTT; Monolith NT.115; one-site binding model; conditions: both partners purified
[2] = molecular target: B1; test: MST; obscurin Ig58-Ig59 labelled with RED-NHS (typically 50-100 nM); unlabelled PLN peptides diluted serially; PBS, 0.2% (v/v) Triton X-100, 2 mM DTT; Monolith NT.115; one-site binding model; conditions: both partners purified

Row | Binder | Kd [1] [µM] | Kd [2] [µM] | further results
1 | B1 | 7.8 | – | –
2 | B2 | 6.4 | – | –
3 | B3 | 6.6 | – | –
4 | B4 | – | – | binding result [1]: binds
5 | B5 | – | 58.5 | –
6 | B6 | – | 18.9 | –
